Target: PA63 ligand (truncated 63 kDa portion of anthrax protective antigen), reagent conjugated with FITC (Bacillus anthracis, UniProt P13423 197-764)
Assay: flow cytometry, FITC-conjugated PA63 on cell lines expressing ANTXR1 and ANTXR2

B1: ANTXR1 (anthrax toxin receptor 1) (receptor)
chain: not shown
notes: whole, on cells
  binding result: binds
